Experimental data reported in patent US20150344580A1 (MSM PROTEIN TECHNOLOGIES, published 2015).

T1: human CXCR1 (human, UniProt P25024 1-350)
T1 construct: whole, on cells; R1610 cells
T1 sequence (looked up): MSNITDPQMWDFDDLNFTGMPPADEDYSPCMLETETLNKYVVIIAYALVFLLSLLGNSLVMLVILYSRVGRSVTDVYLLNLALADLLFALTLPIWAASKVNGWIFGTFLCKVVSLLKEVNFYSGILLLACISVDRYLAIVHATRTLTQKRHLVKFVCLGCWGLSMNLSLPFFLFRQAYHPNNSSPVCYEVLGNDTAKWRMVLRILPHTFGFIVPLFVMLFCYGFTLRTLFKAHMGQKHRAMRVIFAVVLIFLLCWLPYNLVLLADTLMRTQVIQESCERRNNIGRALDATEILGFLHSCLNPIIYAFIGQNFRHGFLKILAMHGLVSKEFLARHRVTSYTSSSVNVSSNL

T2: mouse CCR6 (mouse, UniProt O54689 1-367)
T2 construct: whole, on cells; CHO cells; also called CCR6 (mouse)
T2 sequence (looked up): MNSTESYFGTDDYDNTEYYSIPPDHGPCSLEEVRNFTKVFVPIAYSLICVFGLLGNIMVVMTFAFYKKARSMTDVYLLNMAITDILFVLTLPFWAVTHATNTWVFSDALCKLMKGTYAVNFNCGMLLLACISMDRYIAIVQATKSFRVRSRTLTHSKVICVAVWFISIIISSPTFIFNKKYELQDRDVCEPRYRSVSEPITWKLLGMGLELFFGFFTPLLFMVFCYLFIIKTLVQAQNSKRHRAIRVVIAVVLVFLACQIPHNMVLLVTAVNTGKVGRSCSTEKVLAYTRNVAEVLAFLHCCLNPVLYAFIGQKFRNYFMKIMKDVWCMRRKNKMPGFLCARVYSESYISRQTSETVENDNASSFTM

T3: human CCR6 (human, UniProt P51684 1-374)
T3 construct: whole, on cells; CHO cells; also called CCR6 (human)
T3 sequence (looked up): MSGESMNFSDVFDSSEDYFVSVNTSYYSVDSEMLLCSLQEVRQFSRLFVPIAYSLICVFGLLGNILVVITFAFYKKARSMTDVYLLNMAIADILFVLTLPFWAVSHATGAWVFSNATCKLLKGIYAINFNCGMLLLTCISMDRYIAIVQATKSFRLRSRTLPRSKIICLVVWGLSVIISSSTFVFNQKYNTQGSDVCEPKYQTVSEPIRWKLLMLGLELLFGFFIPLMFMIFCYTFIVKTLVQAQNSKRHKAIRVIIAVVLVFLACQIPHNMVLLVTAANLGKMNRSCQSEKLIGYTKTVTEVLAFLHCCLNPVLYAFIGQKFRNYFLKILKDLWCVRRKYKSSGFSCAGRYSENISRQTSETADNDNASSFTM

T4: human CCR4 (human, UniProt P51679 1-360)
T4 construct: whole, on cells; CHO cells
T4 sequence (looked up): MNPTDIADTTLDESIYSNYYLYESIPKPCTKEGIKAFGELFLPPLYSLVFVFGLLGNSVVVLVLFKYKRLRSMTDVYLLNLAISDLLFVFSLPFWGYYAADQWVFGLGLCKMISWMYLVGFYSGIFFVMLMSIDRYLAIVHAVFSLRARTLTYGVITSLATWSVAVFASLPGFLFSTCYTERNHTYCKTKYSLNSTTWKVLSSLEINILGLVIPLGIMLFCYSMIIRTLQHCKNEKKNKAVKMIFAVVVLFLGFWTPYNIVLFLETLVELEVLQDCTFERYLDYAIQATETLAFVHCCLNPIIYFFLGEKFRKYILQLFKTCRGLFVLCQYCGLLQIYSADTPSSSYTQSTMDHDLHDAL

T5: cyno CXCR3 (cynomolgus monkey, UniProt A0A2K5UV19 1-368)
T5 construct: whole, on cells; CHO cells
T5 sequence: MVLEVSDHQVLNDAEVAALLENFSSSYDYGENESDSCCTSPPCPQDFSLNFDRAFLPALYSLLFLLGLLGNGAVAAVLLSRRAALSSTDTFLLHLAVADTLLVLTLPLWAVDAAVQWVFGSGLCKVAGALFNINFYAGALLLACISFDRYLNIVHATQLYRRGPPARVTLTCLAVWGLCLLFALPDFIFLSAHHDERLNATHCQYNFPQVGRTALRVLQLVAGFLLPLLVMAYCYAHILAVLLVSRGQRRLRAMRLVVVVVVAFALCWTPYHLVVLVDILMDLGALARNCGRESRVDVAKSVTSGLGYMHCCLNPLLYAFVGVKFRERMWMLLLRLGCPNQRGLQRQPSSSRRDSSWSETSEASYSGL

B1: MSM-R710 (fully human anti-human CCR7 antibody, IgG1) (antibody, V domains shown)
VH: EVQLLESGGGLVQPGGSLRLSCAASGFTFSNYTMHWVRQAPGKGLEWVSGIGPRSGRTYYADSVKGRFTISRDNSKNTLYLQMNSLRAEDTAVYYCARSYAYQYRGFDYWGQGTLVTVSS
VL: EIVLTQSPGTLSLSPGERATLSCRASQSVSSSYLAWYQQKPGQAPRLLIYGASSRATGIPDRFSGSGSGTDFTLTISRLEPEDFAVYYCQSSVTFGQGTKVEIKR
notes: IgG1 format
B2: MSM-R735 (fully human anti-human CCR7 antibody, IgG1) (antibody)
heavy: not shown
light: EIVLTQSPGTLSLSPGERATLSCRASQSVSSSYLAWYQQKPGQAPRLLIYGASSRATGIPDRFSGSGSGTDFTLTISRLEPEDFAVYYCQQGSPVTFGQGTKVEIKRTVAAPSVFIFPPSDEQLKSGTASVVCLLNNFYPREAKVQWKVDNALQSGNSQESVTEQDSKDSTYSLSSTLTLSKADYEKHKVYACEVTHQGLSSPVTKSFNRGEC
notes: IgG1 format; also called R735 Human IgG1

How the values were obtained:
human CXCR1 = molecular target: T1, human CXCR1; test: FACS, R1610-human CXCR1 cells
Experimental: (§1) In more details, the cell staining procedure was: 5000-1000 cell suspension in 10 μl FACS buffer (1×PBS, 2.0% FBS, 0.2% sodium azide) was mixed with 10 μl of 200 nM the corresponding anti-CCR7 MAB and incubated on ice for 30 min. Washing step—after the incubation 150 μl of FACS buffer was added to the cell sample, the samples were mixed gently by up-down pipetting the cell suspension. Then the samples were centrifuged at 1100 rpm for 5 minutes, and supernatants were removed. Washing step was repeated ones. Then 10 μl of anti-human PE-(Fab)2 form Jackson Immuno Research Lab. #709-116-098 diluted 40 times in FACS buffer were added to the cells and the cells were re-suspended by up-down pipetting. After 20 min. incubation on ice in dark the washing step was repeated twice. The washed cells were mixed with 100 μl of FIX buffer (0.5% Paraformaldehyde solution in PBS). Fixed samples were stored in dark on ice and analyzed by FACS on Guava PCA-96 flow cytometer. The fluorescent signals collected from individual cells were obtained using fluorescence Activated Cell Sorter (FACS).

mouse CCR6 = molecular target: T2, mouse CCR6; test: FACS, CHO-mouse CCR6 cells
Experimental: as §1

human CCR6 = molecular target: T3, human CCR6; test: FACS, CHO-human CCR6 cells
Experimental: as §1

human CXCR7 = molecular target: T6, human CXCR7 (human, UniProt P25106 1-362); test: FACS, CHO-human CXCR7 cells
T6 construct: whole, on cells; CHO cells
T6 sequence (P25106 whole entry): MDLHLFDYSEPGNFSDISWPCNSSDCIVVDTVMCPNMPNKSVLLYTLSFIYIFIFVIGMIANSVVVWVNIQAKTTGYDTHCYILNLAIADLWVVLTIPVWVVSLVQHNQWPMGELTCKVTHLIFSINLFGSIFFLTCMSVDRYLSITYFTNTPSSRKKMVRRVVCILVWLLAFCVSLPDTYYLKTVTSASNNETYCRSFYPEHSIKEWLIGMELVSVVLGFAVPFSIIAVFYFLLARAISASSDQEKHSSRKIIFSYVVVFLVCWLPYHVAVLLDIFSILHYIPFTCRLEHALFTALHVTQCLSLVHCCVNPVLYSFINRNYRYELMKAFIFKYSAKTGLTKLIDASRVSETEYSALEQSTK

human CCR5 = molecular target: T7, human CCR5 (human, UniProt P51681 1-352); test: FACS, CHO-human CCR5 cells
T7 construct: whole, on cells; CHO cells
T7 sequence (P51681 whole entry): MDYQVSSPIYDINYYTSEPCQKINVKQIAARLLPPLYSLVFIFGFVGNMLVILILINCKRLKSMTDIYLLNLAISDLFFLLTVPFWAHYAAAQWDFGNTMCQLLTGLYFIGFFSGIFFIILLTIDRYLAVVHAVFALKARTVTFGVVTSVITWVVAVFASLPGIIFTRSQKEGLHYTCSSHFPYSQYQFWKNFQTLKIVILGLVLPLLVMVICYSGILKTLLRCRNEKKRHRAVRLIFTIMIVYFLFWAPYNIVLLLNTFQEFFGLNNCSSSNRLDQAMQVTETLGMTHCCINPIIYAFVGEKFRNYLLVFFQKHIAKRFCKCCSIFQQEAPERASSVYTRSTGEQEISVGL
Experimental: as §1

human CCR4 = molecular target: T4, human CCR4; test: FACS, CHO-human CCR4 cells
Experimental: as §1, with “Washing” for “In more details, the cell staining procedure was: 5000-1000 cell suspension in 10 μl FACS buffer (1×PBS, 2.0% FBS, 0.2% sodium azide) was mixed with 10 μl of 200 nM the corresponding anti-CCR7 MAB and incubated on ice for 30 min. Washing”, “cytometer.” for “cytometer. The fluorescent signals collected from individual cells were obtained using fluorescence Activated Cell Sorter (FACS).”
In more details, the cell staining procedure was: […] cell suspension in 10 μl FACS buffer (1×PBS, 2.0% FBS, 0.2% sodium azide) was mixed with 10 μl of 200 nM the corresponding anti-CCR7 MAB and incubated on ice for 30 min. Washing step—after the incubation 150 μl of FACS buffer was added to the cell sample, the samples were mixed gently by up-down pipetting the cell suspension. […] Fixed samples were stored in dark on ice and analyzed by FACS on Guava PCA-96 flow cytometer. The fluorescent signals collected from individual cells were obtained using fluorescence Activated Cell Sorter (FACS).

cyno CXCR3 = molecular target: T5, cyno CXCR3; test: FACS, CHO-cyno CXCR3 cells
Experimental: as §1

Binder | binding result (human CXCR1) | binding result (mouse CCR6) | binding result (human CCR6) | binding result (human CXCR7) | binding result (human CCR5) | binding result (human CCR4) | binding result (cyno CXCR3)
B1 | no binding (tested: 200 nM MAB mixed 1:1 with cells) | no binding (tested: 200 nM MAB mixed 1:1 with cells) | no binding (tested: 200 nM MAB mixed 1:1 with cells) | no binding (tested: 200 nM MAB mixed 1:1 with cells) | no binding (tested: 200 nM MAB mixed 1:1 with cells) | no binding (tested: 200 nM MAB mixed 1:1 with cells) | no binding (tested: 200 nM MAB mixed 1:1 with cells)
B2 | no binding (tested: 200 nM MAB mixed 1:1 with cells) | no binding (tested: 200 nM MAB mixed 1:1 with cells) | no binding (tested: 200 nM MAB mixed 1:1 with cells) | no binding (tested: 200 nM MAB mixed 1:1 with cells) | no binding (tested: 200 nM MAB mixed 1:1 with cells) | no binding (tested: 200 nM MAB mixed 1:1 with cells) | no binding (tested: 200 nM MAB mixed 1:1 with cells)
